Assays:
[1] = target: mDR5ectm-td1, extracellular and transmembrane domains of murine DR5 fused to tetanus toxin fragment (mouse); assay: flow cytometry on SKOV3 cells transfected with murine DR5 (mDR5ectm-td1)
[2] = target: full length wild type human DR5 (human) (UniProt O14763); assay: cell-based or functional assay
Sequence of UniProt O14763 (O14763 other isoform, or with tags, fused parts or gaps limits assumed): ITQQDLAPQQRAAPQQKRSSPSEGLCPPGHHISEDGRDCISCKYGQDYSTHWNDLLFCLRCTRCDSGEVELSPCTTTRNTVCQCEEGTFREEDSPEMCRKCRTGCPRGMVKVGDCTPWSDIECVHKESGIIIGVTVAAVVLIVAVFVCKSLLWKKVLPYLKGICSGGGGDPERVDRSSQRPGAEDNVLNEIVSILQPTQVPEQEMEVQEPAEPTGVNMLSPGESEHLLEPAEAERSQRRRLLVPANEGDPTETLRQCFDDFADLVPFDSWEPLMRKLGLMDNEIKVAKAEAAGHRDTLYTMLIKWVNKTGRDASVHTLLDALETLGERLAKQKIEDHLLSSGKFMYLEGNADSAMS

MD5-1, monoclonal antibody to mouse DR5
percent of cells stained [1]: 100%

human DR5 agonist monoclonal antibody mAb631 (clone 71903, MAB631; R&D Systems)
growth inhibition of SUM159 cells (MTT) at 1 µg/mL antibody [2]: 36%
growth inhibition of SUM159 cells (MTT) at 2 µg/mL antibody [2]: 55%
growth inhibition of SUM159 cells (MTT) at 4 µg/mL antibody [2]: 65%

From patent US20120189572A1
